According to US20200131266A1 (STCUBE, published 2020):

T1: human BTN1A1 on cells (human, UniProt Q13410 27-526)
T1 construct: also called HEK293T cells overexpressing BTN1A1
T1 sequence: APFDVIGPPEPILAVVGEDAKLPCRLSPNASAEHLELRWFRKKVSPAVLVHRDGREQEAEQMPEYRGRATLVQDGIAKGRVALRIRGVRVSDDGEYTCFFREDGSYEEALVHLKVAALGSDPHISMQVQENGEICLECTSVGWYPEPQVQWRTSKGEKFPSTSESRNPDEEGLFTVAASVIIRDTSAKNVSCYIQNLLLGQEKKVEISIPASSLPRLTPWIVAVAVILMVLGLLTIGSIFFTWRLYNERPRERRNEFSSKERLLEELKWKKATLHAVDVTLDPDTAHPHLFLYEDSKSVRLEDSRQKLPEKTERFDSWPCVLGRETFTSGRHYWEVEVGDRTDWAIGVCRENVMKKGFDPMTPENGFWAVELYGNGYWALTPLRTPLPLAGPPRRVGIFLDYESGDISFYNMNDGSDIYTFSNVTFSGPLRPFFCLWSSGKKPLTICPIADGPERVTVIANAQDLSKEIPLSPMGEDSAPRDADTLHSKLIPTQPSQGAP


Each binder was assayed against T1, human BTN1A1 on cells (assay: FACS, HEK293T cells overexpressing BTN1A1).
Procedure: To identify anti-BTN1A1-Fc MAbs that were specific for and which preferentially bound human BTN1A1-Fc antigen, different types of assays were performed. In a screening assay to detect preferential binding of MAbs to BTN1A1, antibody binding was determined based on the measurement of fluorescence intensity through FACS analysis (using cell membrane bound proteins). By way of example, the assay was performed using the HEK293T human embryonic kidney cell line. Illustratively, HEK293T cells overexpressing BTN1A1 were incubated with anti-BTN1A1 antibodies existing in hybridoma culture supernatant. After washing, secondary antibodies conjugated with FITC were added as detection agent. Fluorescence intensity (measured fluorescence intensity, MFI) was measured via FACS I flow cytometry analysis to assess the relative binding of the anti-BTN1A1 antibodies to membrane bound BTN1A1 WT on cells. […] Based on the binding analysis, sixty seven candidate MAb-producing hybridomas were selected, grown in ADCF medium, and their supernatant containing monoclonal antibody was concentrated and purified.

FACS (MFI) | Binder
841 MFI | STC2739 (antibody, V domains shown, mouse hybridoma monoclonal antibody raised against human BTN1A1-Fc, kappa light chain) VH: QVQLKQSGPGLVQPSQSLSITCTVSGFSLTTHGVNWVRQSPGKGLEWLGVIWSGGSTDYNAAFISRLSISKDNSKSQVFFKMNSLQANDTAIYYCARPYYYGAMDYWGQGTSVTVSS VL: QIVLTQSPSIMSASPGEKVTITCSASSSVSYIHWFQQKPGTSPKLWIYSTSNLASGVPARFSGSGSGTSYSLTISRMEAEDAATYYCQQRSIYPLTFGAGTKLELK
69.5 MFI | STC2602 (antibody, V domains shown, mouse hybridoma monoclonal antibody, kappa light chain) VH: EVQLQQSGPELVKPGASVKISCKASGFSFIGYYIDWVKQSPGKSLEWIGYIYPSNGETSYHQKCKGKATLTVDKSSSTVNMQLNSLTSEDSAVYYCARYGNYDWFFDVWGAGTTVTVSS VL: QIVLTQSPAIMSASPGEKVTITCSASSSVSYMHWFQQKPGTSPKFWIYSTSNLASGVPIRFSGSGSGTSYSLTISRMEAEDAATYYCQQRSSYPYTFGGGTKLEIK
2340 MFI | STC2778 (antibody, V domains shown, mouse hybridoma monoclonal antibody raised against human BTN1A1-Fc, kappa light chain) VH: QIQLVQSGPELKKPGETVKISCKASGYSFTNYGMNWVKQAPGKGLKWMGWINIYTGETTYGDDFKGRFAFSLETSASTAYLQINNLRSEDTATYFCVRGGTMIMYWGQGTTLTVSS VL: DIVLTQSPATLSVTPGDSVSLSCRASQSISNNLHWHQQKSHESPRLLIKYASQSMSGIPSRFSGSGSGTDFTLSINSVETEDFGMYFCQQSDSWPLTFGAGTKLELK
